T1: p204 HINab (Mus musculus, UniProt P0DOV2 216-619)
T1 sequence: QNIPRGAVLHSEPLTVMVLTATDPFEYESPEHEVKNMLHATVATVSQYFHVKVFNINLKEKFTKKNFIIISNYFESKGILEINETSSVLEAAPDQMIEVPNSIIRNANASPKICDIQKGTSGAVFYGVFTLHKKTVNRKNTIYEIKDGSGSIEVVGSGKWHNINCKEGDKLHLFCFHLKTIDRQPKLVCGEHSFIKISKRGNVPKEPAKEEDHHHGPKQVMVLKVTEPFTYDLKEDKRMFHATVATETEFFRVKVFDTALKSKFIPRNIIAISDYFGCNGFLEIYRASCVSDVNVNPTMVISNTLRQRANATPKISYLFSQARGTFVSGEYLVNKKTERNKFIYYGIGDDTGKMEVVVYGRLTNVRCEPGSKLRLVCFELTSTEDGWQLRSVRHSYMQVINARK

T2: p204 HINa (Mus musculus, UniProt P0DOV2 216-417)
T2 sequence: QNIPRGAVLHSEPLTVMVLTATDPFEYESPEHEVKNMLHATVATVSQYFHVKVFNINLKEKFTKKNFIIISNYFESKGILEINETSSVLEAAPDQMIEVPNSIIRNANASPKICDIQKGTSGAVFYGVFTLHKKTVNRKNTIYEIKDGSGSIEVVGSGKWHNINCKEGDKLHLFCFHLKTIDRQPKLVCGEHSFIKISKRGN

T3: p204 HINb (Mus musculus, UniProt P0DOV2 427-619)
T3 sequence: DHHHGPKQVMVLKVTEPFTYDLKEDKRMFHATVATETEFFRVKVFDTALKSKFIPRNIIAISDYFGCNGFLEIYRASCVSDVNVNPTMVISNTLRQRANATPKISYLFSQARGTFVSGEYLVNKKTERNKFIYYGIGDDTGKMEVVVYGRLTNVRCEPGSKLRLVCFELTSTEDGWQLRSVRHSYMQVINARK


Experiments:
[1] = target: T1, p204 HINab; experiment: fluorescence polarization
[2] = target: T2, p204 HINa; experiment: fluorescence polarization
[3] = target: T3, p204 HINb; experiment: fluorescence polarization
[4] = target: T1, p204 HINab; experiment: X-ray crystallography

Binder	Kd [1] [µM]	Kd [2] [µM]	Kd [3] [µM]	binding result [4]
30 mer dsDNA (dsDNA) DNA 1: CCATCAGAAAGAGGTTTAATATTTTTGTGA DNA 2: TCACAAAAATATTAAACCTCTTTCTGATGG	13.5 ± 2.39	193 ± 77	157 ± 37.2	
16 mer dsDNA (crystal) (dsDNA) DNA 1: CCATCAGAAAGAGAGC DNA 2: GCTCTCTTTCTGATGG				binds
20 mer dsDNA (dsDNA) DNA 1: TAAGACACGATGCGATAAAA DNA 2: TTTTATCGCATCGTGTCTTA	156 ± 37.5			
